Test results published in patent publication US20220267369A1.

Experiments:
[1] = molecular target: Protein A ligand of MabSelect Sure resin (GE Healthcare, Chicago, IL); experiment: separation factor on Protein A MabSelect Sure against mAb1; Strip: 100 mM acetic acid
[2] = molecular target: Protein A ligand of MabSelect Sure resin (GE Healthcare, Chicago, IL); experiment: separation factor on protein A resin against mAb3, loading condition
[3] = molecular target: Protein A ligand of MabSelect Sure resin (GE Healthcare, Chicago, IL); experiment: resin slurry plate partitioning on Protein A MabSelect Sure; Strip: 100 mM acetic acid
[4] = molecular target: Protein A ligand of MabSelect Sure resin (GE Healthcare, Chicago, IL); experiment: separation factor on Protein A MabSelect Sure against mAb1; Elute: 20 mM NaAcetate, pH 3.5
[5] = molecular target: Protein A ligand of MabSelect Sure resin (GE Healthcare, Chicago, IL); experiment: separation factor on Protein A MabSelect Sure against mAb2; Equil/wash: 10 mM NaPhosphate, pH 6.5
[6] = molecular target: Protein A ligand of MabSelect Sure resin (GE Healthcare, Chicago, IL); experiment: resin slurry plate partitioning on Protein A MabSelect Sure; High salt wash: 10 mM NaPhosphate, pH 6.5, 0.5M NaCl
[7] = molecular target: Protein A ligand of MabSelect Sure resin (GE Healthcare, Chicago, IL); experiment: resin slurry plate partitioning on Protein A MabSelect Sure; Elute: 20 mM NaAcetate, pH 3.5
[8] = molecular target: Protein A ligand of MabSelect Sure resin (GE Healthcare, Chicago, IL); experiment: resin slurry plate partitioning on Protein A MabSelect Sure; Equil/wash: 10 mM NaPhosphate, pH 6.5
[9] = molecular target: Protein A ligand of MabSelect Sure resin (GE Healthcare, Chicago, IL); experiment: separation factor on Protein A MabSelect Sure against mAb2; Strip: 100 mM acetic acid
[10] = molecular target: Protein A ligand of MabSelect Sure resin (GE Healthcare, Chicago, IL); experiment: separation factor on Protein A MabSelect Sure against mAb2; High salt wash: 10 mM NaPhosphate, pH 6.5, 0.5M NaCl
[11] = molecular target: Protein A ligand of MabSelect Sure resin (GE Healthcare, Chicago, IL); experiment: separation factor on Protein A MabSelect Sure against mAb1; Equil/wash: 10 mM NaPhosphate, pH 6.5
[12] = molecular target: Protein A ligand of MabSelect Sure resin (GE Healthcare, Chicago, IL); experiment: separation factor on Protein A MabSelect Sure against mAb2; Elute: 20 mM NaAcetate, pH 3.5
[13] = molecular target: Protein A ligand of MabSelect Sure resin (GE Healthcare, Chicago, IL); experiment: separation factor on Protein A MabSelect Sure against mAb1; High salt wash: 10 mM NaPhosphate, pH 6.5, 0.5M NaCl

log α (log KP PLBL2 - log KP mAb1) [1]: 0 | log α (log KP PLBL2 - log KP mAb3) [2]: -2 | log KP (partition coefficient, bound/free on resin) [3]: 0 | log α (log KP PLBL2 - log KP mAb1) [4]: 0 | log α (log KP PLBL2 - log KP mAb2) [5]: -2 | log KP (partition coefficient, bound/free on resin) [6]: 0 | log KP (partition coefficient, bound/free on resin) [7]: 0 | log KP (partition coefficient, bound/free on resin) [8]: 0 | log α (log KP PLBL2 - log KP mAb2) [9]: 0 | log α (log KP PLBL2 - log KP mAb2) [10]: -2 | log α (log KP PLBL2 - log KP mAb1) [11]: -2 | log α (log KP PLBL2 - log KP mAb2) [12]: -0.3 | log α (log KP PLBL2 - log KP mAb1) [13]: -2
Substance: phospholipase B-like 2 (PLBL2) (enzyme)
